One experiment addresses HLA-A*02:06. The experiment in a line: IEDB peptide-MHC binding, purified MHC/competitive/radioactivity; filed as Kd, often an IC50 or EC50 that approximates it; ≥ and ≤ were set here for values at or beyond the usual limits of such assays.
For a further experiment, the target named is HLA-A*02:02. Described as above.
In another experiment the target is HLA-A*02:03. Described as above.
A further experiment addresses HLA-A*69:01. The experiment in a line: IEDB peptide-MHC binding, purified MHC/direct/fluorescence; filed as Kd, often an IC50 or EC50 that approximates it; ≥ and ≤ were set here for values at or beyond the usual limits of such assays.
The target in a further experiment is HLA-A*02:01. The description is as above.
The mark [1] stands for this setting: source organism: Vaccinia virus WR.
The mark [2] stands for this setting: source organism: Giardia lamblia ATCC 50803.
Where [3] appears, read: source organism: Vaccinia virus Copenhagen.
[4] abbreviates: source organism: SARS coronavirus Tor2.
Setting [5] is: source organism: Salmonella enterica subsp. enterica serovar Typhimurium.

On to DIKYDNKLL, for which the Kd with HLA-A*02:06 (setting [1]) is at least 77100 nM; with HLA-A*02:02 (setting [1]), 1420 nM; with HLA-A*02:03 (setting [1]) it was at least 49800 nM.
For SLNPYYQSY, the Kd with HLA-A*69:01 (setting [2]) and in the experiment with HLA-A*02:01 (setting [2]) was at least 20000 nM each time.
On to RVTTELNIV, for which the Kd with HLA-A*02:06 (setting [1]) was determined as 45.7 nM; with HLA-A*02:02 (setting [1]), 2460 nM; in the experiment with HLA-A*02:03 (setting [1]), 116 nM.
In the case of FISYNRHNDT, the Kd was 11300 nM in the experiment with HLA-A*02:06 (setting [1]), 6840 nM in the experiment with HLA-A*02:02 (setting [1]) and 4930 nM in the experiment with HLA-A*02:03 (setting [1]).
Turning to DAEFVMCLEA, the Kd with HLA-A*02:06 (setting [1]) turned out to be 12700 nM; with HLA-A*02:02 (setting [1]), 2410 nM; in the experiment with HLA-A*02:03 (setting [1]) it was 7310 nM.
Turning to ILSCIFAFI, the Kd came out at 8.84 nM in the experiment with HLA-A*02:06 (setting [3]), 0.79 nM with HLA-A*02:02 (setting [3]) and 3.08 nM with HLA-A*02:03 (setting [3]).
As to YIAGLKIEEI, the Kd in the experiment with HLA-A*02:06 (setting [1]) is 134 nM; in the experiment with HLA-A*02:02 (setting [1]) it was 8.92 nM; in the experiment with HLA-A*02:03 (setting [1]), 5.3 nM.
In the case of PISDYSAEV, the results for the Kd in the experiment with HLA-A*02:06 (setting [1]), with HLA-A*02:02 (setting [1]) and in the experiment with HLA-A*02:03 (setting [1]) were 2800 nM, 716 nM and 267 nM, respectively.
On the same counts, the results for SMTSDSKSI are at least 55800 nM, 8350 nM and 2300 nM.
LMWFIISIV: the values for the dissociation constant (Kd) with HLA-A*02:06 (setting [4]), in the experiment with HLA-A*02:02 (setting [4]) and with HLA-A*02:03 (setting [4]) were 26.8 nM, 60.1 nM and 7.18 nM, respectively.
Take ILDNLRCHSA: the equilibrium dissociation constant (Kd) in the experiment with HLA-A*02:06 (setting [1]) was 297 nM; in the experiment with HLA-A*02:02 (setting [1]), 972 nM; with HLA-A*02:03 (setting [1]), 69.3 nM.
Consider NVTYNIKPV, for which the Kd with HLA-A*02:06 (setting [1]) is 855 nM; in the experiment with HLA-A*02:02 (setting [1]) it was at least 22800 nM; with HLA-A*02:03 (setting [1]), 153 nM.
Turning to DVCKKNLDL, the dissociation constant (Kd) with HLA-A*02:06 (setting [1]) is 16300 nM; in the experiment with HLA-A*02:02 (setting [1]), at least 25400 nM; in the experiment with HLA-A*02:03 (setting [1]) it was 8020 nM.
In the case of FASADNHPKM, the values for the Kd in the experiment with HLA-A*02:06 (setting [1]), with HLA-A*02:02 (setting [1]) and with HLA-A*02:03 (setting [1]) were at least 69800 nM, at least 70000 nM and at least 47400 nM, respectively.
With AMLKSKNINI, the Kd with HLA-A*02:06 (setting [1]) was 200 nM; with HLA-A*02:02 (setting [1]), 1650 nM; with HLA-A*02:03 (setting [1]) it was 223 nM.
Take IVNTTYDFLA: the values for the Kd with HLA-A*02:06 (setting [1]), in the experiment with HLA-A*02:02 (setting [1]) and in the experiment with HLA-A*02:03 (setting [1]) were 956 nM, 1250 nM and 8270 nM, respectively.
In the same order, the values of VMPEKRNVV are 3290 nM, 1100 nM and 23 nM.
Regarding EIKAEMQLKI, the Kd in the experiment with HLA-A*02:06 (setting [1]) came out at 14300 nM; with HLA-A*02:02 (setting [1]) it was 16900 nM; with HLA-A*02:03 (setting [1]), 4760 nM.
In the same order, the values of VQSVLRDISI are 132 nM, 77.9 nM and 541 nM.
In the same order, the values of SLGKSPLPSL are 1430 nM, 4.07 nM and 46.8 nM.
For ELLSHVGQA, the Kd with HLA-A*69:01 (setting [5]) amounted to 63.1 nM; with HLA-A*02:01 (setting [5]), 3590 nM.
Turning to VQTLISLNSM, the Kd came out at 853 nM with HLA-A*02:06 (setting [1]), 1560 nM in the experiment with HLA-A*02:02 (setting [1]) and 5820 nM with HLA-A*02:03 (setting [1]).
As to PTPKKMNIVT, the Kd with HLA-A*02:06 (setting [1]) is at least 69800 nM; in the experiment with HLA-A*02:02 (setting [1]), at least 65800 nM; with HLA-A*02:03 (setting [1]), at least 55700 nM.
As to LIANIFTPLV, the figures for the dissociation constant (Kd) with HLA-A*02:06 (setting [4]), in the experiment with HLA-A*02:02 (setting [4]) and with HLA-A*02:03 (setting [4]) were 15.7 nM, 0.398 nM and 13.4 nM, respectively.
For the sequence SLKRFTHTTA, the Kd with HLA-A*02:06 (setting [1]) stood at 7320 nM; with HLA-A*02:02 (setting [1]) it was 884 nM; with HLA-A*02:03 (setting [1]), 726 nM.
With TINALVYFST, the Kd with HLA-A*02:06 (setting [1]) was at least 62200 nM; with HLA-A*02:02 (setting [1]), 14100 nM; in the experiment with HLA-A*02:03 (setting [1]), 7340 nM.
Take FISPASISSV: the equilibrium dissociation constant (Kd) in the experiment with HLA-A*02:06 (setting [1]) worked out at 2.02 nM; with HLA-A*02:02 (setting [1]), 3.01 nM; with HLA-A*02:03 (setting [1]), 0.111 nM.
In the same order, the values of ETMYLTMKA are 12700 nM, 7850 nM and 942 nM.
Consider AVIIMAINV, for which the equilibrium dissociation constant (Kd) in the experiment with HLA-A*02:06 (setting [1]) stood at 65.2 nM; with HLA-A*02:02 (setting [1]), 9070 nM; with HLA-A*02:03 (setting [1]), 2760 nM.
IIAVFDSKL: the Kd in the experiment with HLA-A*02:06 (setting [1]) was determined as 98.6 nM; in the experiment with HLA-A*02:02 (setting [1]), 44 nM; with HLA-A*02:03 (setting [1]), 107 nM.
With ELKDLLNVT, the values for the Kd with HLA-A*02:06 (setting [1]), with HLA-A*02:02 (setting [1]) and with HLA-A*02:03 (setting [1]) were at least 38400 nM, 1540 nM and 209 nM, respectively.
For the sequence LITNTKSDNI, the Kd with HLA-A*02:06 (setting [1]) was found to be 18700 nM; with HLA-A*02:02 (setting [1]) it was 2250 nM; with HLA-A*02:03 (setting [1]), 3080 nM.
Consider YVVVHGYFT, for which the values for the Kd with HLA-A*02:06 (setting [4]), with HLA-A*02:02 (setting [4]) and with HLA-A*02:03 (setting [4]) were 171 nM, 342 nM and 792 nM, respectively.
In the case of NVSRVVECL, the Kd in the experiment with HLA-A*02:06 (setting [1]) came to 1030 nM; with HLA-A*02:02 (setting [1]), 133 nM; with HLA-A*02:03 (setting [1]), 938 nM.
Take VILKDPRIA: the figures for the dissociation constant Kd with HLA-A*02:06 (setting [1]), in the experiment with HLA-A*02:02 (setting [1]) and in the experiment with HLA-A*02:03 (setting [1]) were 318 nM, 10600 nM and 603 nM, respectively.
As to FIQWTGGNI, the figures for the Kd in the experiment with HLA-A*02:06 (setting [1]), in the experiment with HLA-A*02:02 (setting [1]) and with HLA-A*02:03 (setting [1]) were 5910 nM, 683 nM and 54.7 nM, respectively.

The term Kd denotes the equilibrium constant for the complex coming apart.

The record behind these values is the Immune Epitope Database (IEDB).
